Starred links: 1 amine or outer side, 2 acyl side, 3 side chain; linkers in the order of their positions; H or OH if unused. Positions of bridges follow the written chain, without caps; N, C: chain ends. Groups on a side chain read outwards from the residue. No end group written: not given here. *: point of attachment. C20 diacid = O=C(O)CCCCCCCCCCCCCCCCCCC(=O)*; C18 diacid = O=C(O)CCCCCCCCCCCCCCCCC(=O)*; γGlu = O=C(O)[C@H](CCC(=O)[*:2])N[*:1]; AEEA = NCCOCCOCC(=O)O
What was measured:
Experiment in all cases: cell-based or functional assay
[1] = target: T1, rat amylin 3(a) receptor (rat calcitonin(a) receptor + rat RAMP3) (rat, UniProt P32214 25-516; Q9JJ73 23-147)
T1 sequence (looked up) 1: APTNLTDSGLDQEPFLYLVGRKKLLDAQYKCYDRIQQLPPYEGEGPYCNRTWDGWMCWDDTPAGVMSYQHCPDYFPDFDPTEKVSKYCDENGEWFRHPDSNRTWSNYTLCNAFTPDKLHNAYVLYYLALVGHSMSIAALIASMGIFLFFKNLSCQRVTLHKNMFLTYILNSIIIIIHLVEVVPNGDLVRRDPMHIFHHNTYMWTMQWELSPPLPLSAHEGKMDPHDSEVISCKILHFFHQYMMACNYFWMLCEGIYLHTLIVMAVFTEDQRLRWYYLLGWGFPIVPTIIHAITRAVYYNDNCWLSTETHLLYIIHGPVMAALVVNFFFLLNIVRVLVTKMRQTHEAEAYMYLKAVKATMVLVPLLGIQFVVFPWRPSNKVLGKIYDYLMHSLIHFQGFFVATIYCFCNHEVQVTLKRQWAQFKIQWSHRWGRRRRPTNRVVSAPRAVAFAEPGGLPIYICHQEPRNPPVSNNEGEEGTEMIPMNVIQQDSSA
T1 sequence (looked up) 2: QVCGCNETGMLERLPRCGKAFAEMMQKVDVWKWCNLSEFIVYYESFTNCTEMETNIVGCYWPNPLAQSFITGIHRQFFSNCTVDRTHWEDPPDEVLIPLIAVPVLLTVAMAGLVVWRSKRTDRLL

[2] = target: T2, rat calcitonin (a) receptor (rat, UniProt P32214 25-516)
T2 sequence (looked up): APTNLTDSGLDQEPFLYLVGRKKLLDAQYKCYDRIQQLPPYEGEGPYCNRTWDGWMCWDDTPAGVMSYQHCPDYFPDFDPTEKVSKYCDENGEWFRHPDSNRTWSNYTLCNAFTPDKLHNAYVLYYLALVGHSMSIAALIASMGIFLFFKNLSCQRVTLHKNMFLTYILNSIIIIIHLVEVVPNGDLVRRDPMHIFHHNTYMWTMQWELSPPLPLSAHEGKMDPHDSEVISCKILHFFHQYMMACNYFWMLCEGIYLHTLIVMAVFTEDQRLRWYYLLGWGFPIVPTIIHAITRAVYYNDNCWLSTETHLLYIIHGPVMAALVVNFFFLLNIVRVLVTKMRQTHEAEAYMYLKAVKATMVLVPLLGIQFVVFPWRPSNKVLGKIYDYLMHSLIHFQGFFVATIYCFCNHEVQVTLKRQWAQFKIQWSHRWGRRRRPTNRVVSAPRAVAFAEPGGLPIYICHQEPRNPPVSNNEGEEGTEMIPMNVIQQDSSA

[3] = target: T3, human amylin 3(a) receptor (human calcitonin receptor + RAMP-3) (human, UniProt P30988 25-474; O60896 24-148)
T3 sequence (looked up) 1: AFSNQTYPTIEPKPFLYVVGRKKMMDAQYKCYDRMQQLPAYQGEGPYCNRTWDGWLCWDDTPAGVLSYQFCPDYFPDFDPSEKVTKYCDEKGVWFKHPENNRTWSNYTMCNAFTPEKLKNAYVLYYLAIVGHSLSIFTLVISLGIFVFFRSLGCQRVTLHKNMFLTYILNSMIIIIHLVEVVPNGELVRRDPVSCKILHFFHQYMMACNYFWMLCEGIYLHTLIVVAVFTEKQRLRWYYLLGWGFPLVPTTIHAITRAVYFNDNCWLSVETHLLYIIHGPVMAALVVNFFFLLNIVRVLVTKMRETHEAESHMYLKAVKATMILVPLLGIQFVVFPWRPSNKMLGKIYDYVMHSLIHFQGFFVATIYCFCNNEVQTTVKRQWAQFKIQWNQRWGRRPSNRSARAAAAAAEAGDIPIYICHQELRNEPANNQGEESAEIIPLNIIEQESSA
T3 sequence (looked up) 2: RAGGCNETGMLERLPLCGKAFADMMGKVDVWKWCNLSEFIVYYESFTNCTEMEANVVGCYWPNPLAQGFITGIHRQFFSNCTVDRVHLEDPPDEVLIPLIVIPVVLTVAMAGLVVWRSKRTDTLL

[4] = target: T4, human calcitonin (a) receptor (human, UniProt P30988 25-474)
T4 sequence (looked up): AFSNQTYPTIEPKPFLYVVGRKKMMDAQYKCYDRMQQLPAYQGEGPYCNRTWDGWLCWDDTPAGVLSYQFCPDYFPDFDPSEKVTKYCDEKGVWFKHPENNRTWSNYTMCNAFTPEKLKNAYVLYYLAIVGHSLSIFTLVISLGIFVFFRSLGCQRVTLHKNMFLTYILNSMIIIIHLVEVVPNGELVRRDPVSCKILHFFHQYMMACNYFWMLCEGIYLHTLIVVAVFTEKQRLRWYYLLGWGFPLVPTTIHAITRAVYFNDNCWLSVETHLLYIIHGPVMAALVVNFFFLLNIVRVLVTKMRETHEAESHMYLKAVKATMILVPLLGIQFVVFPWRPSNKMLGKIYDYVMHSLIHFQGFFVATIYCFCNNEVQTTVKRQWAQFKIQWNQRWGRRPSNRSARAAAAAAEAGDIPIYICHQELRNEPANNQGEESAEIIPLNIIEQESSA

B1: N-epsilon25-[2-(2-{2-[2-(2-{2-[(S)-4-Carboxy-4-(17-carboxyheptadecanoylamino)butyrylamino]ethoxy}ethoxy)acetylamino]ethoxy}ethoxy)acetyl]-[Glu14,His17,Lys25]-pr … (peptide)
peptide: KCNTATCATQRLAEFLHHSSNNFGK([AEEA-AEEA-γGlu-C18 diacid])ILPPTNVGSNTY-NH2
modifications: disulfide 2-7; N-terminus assumed
SMILES: CC[C@H](C)[C@H](NC(=O)[C@H](CCCCNC(=O)COCCOCCNC(=O)COCCOCCNC(=O)CC[C@H](NC(=O)CCCCCCCCCCCCCCCCC(=O)O)C(=O)O)NC(=O)CNC(=O)[C@H](Cc1ccccc1)NC(=O)[C@H](CC(N)=O)NC(=O)[C@H](CC(N)=O)NC(=O)[C@H](CO)NC(=O)[C@H](CO)NC(=O)[C@H](Cc1c[nH]cn1)NC(=O)[C@H](Cc1c[nH]cn1)NC(=O)[C@H](CC(C)C)NC(=O)[C@H](Cc1ccccc1)NC(=O)[C@H](CCC(=O)O)NC(=O)[C@H](C)NC(=O)[C@H](CC(C)C)NC(=O)[C@H](CCCNC(=N)N)NC(=O)[C@H](CCC(N)=O)NC(=O)[C@@H](NC(=O)[C@H](C)NC(=O)[C@@H]1CSSC[C@H](NC(=O)[C@@H](N)CCCCN)C(=O)N[C@@H](CC(N)=O)C(=O)N[C@@H]([C@@H](C)O)C(=O)N[C@@H](C)C(=O)N[C@@H]([C@@H](C)O)C(=O)N1)[C@@H](C)O)C(=O)N[C@@H](CC(C)C)C(=O)N1CCC[C@H]1C(=O)N1CCC[C@H]1C(=O)N[C@H](C(=O)N[C@@H](CC(N)=O)C(=O)N[C@H](C(=O)NCC(=O)N[C@@H](CO)C(=O)N[C@@H](CC(N)=O)C(=O)N[C@H](C(=O)N[C@@H](Cc1ccc(O)cc1)C(N)=O)[C@@H](C)O)C(C)C)[C@@H](C)O
- Amylin receptor rat EC50 [1]: 52 pM
- CTa receptor rat EC50 [2]: 167 pM
- Amylin receptor human EC50 [3]: 38.5 pM
- CTa receptor human EC50 [4]: 45 pM

B2: N-epsilon21-[2-(2-{2-[2-(2-{2-[(S)-4-Carboxy-4-(17-carboxyheptadecanoylamino)butyrylamino]ethoxy}ethoxy)acetylamino]ethoxy}ethoxy)acetyl]-[Glu14,His17,Lys21,Glu … (peptide)
peptide: KCNTATCATQRLAEFLHHSSK([AEEA-AEEA-γGlu-C18 diacid])NFGPILPPTNVGSETY-NH2
modifications: disulfide 2-7; N-terminus assumed
SMILES: CC[C@H](C)[C@H](NC(=O)[C@@H]1CCCN1C(=O)CNC(=O)[C@H](Cc1ccccc1)NC(=O)[C@H](CC(N)=O)NC(=O)[C@H](CCCCNC(=O)COCCOCCNC(=O)COCCOCCNC(=O)CC[C@H](NC(=O)CCCCCCCCCCCCCCCCC(=O)O)C(=O)O)NC(=O)[C@H](CO)NC(=O)[C@H](CO)NC(=O)[C@H](Cc1c[nH]cn1)NC(=O)[C@H](Cc1c[nH]cn1)NC(=O)[C@H](CC(C)C)NC(=O)[C@H](Cc1ccccc1)NC(=O)[C@H](CCC(=O)O)NC(=O)[C@H](C)NC(=O)[C@H](CC(C)C)NC(=O)[C@H](CCCNC(=N)N)NC(=O)[C@H](CCC(N)=O)NC(=O)[C@@H](NC(=O)[C@H](C)NC(=O)[C@@H]1CSSC[C@H](NC(=O)[C@@H](N)CCCCN)C(=O)N[C@@H](CC(N)=O)C(=O)N[C@@H]([C@@H](C)O)C(=O)N[C@@H](C)C(=O)N[C@@H]([C@@H](C)O)C(=O)N1)[C@@H](C)O)C(=O)N[C@@H](CC(C)C)C(=O)N1CCC[C@H]1C(=O)N1CCC[C@H]1C(=O)N[C@H](C(=O)N[C@@H](CC(N)=O)C(=O)N[C@H](C(=O)NCC(=O)N[C@@H](CO)C(=O)N[C@@H](CCC(=O)O)C(=O)N[C@H](C(=O)N[C@@H](Cc1ccc(O)cc1)C(N)=O)[C@@H](C)O)C(C)C)[C@@H](C)O
- Amylin receptor rat EC50 [1]: 504 pM
- CTa receptor rat EC50 [2]: 2060 pM
- Amylin receptor human EC50 [3]: 184 pM
- CTa receptor human EC50 [4]: 216 pM

B3: N-alpha-[(S)-4-Carboxy-4-(19-carboxynonadecanoylamino)butyryl]-[His1,Glu14,His17,His35]-pramlintide (peptide)
peptide: {C20 diacid-γGlu}-HCNTATCATQRLAEFLHHSSNNFGPILPPTNVGSHTY-NH2
modifications: disulfide 2-7; not fully specified; printed as N-alpha-[(S)-4-Carboxy-4-(19-carboxynonadecanoylamino)butyryl]-[His1,Glu14,His17,His35]-pramlintide
- Amylin receptor rat EC50 [1]: 224 pM
- CTa receptor rat EC50 [2]: 1040 pM
- Amylin receptor human EC50 [3]: 122 pM
- CTa receptor human EC50 [4]: 85.5 pM

B4: N-alpha-[(S)-4-Carboxy-4-(19-carboxynonadecanoylamino)butyryl]-[His1,Glu14,His17,Pro37]-pramlintide (peptide)
peptide: {C20 diacid-γGlu}-HCNTATCATQRLAEFLHHSSNNFGPILPPTNVGSNTP-NH2
modifications: disulfide 2-7; not fully specified; printed as N-alpha-[(S)-4-Carboxy-4-(19-carboxynonadecanoylamino)butyryl]-[His1,Glu14,His17,Pro37]-pramlintide
- Amylin receptor rat EC50 [1]: 121 pM
- CTa receptor rat EC50 [2]: 109 pM
- Amylin receptor human EC50 [3]: 92.5 pM
- CTa receptor human EC50 [4]: 67 pM

B5: N-epsilon1-[(S)-4-Carboxy-4-(19-carboxynonadecanoylamino)butyryl]-[Glu14,His17,His35]-pramlintide (peptide)
peptide: K([γGlu-C20 diacid])CNTATCATQRLAEFLHHSSNNFGPILPPTNVGSHTY-NH2
modifications: disulfide 2-7; N-terminus assumed
SMILES: CC[C@H](C)[C@H](NC(=O)[C@@H]1CCCN1C(=O)CNC(=O)[C@H](Cc1ccccc1)NC(=O)[C@H](CC(N)=O)NC(=O)[C@H](CC(N)=O)NC(=O)[C@H](CO)NC(=O)[C@H](CO)NC(=O)[C@H](Cc1c[nH]cn1)NC(=O)[C@H](Cc1c[nH]cn1)NC(=O)[C@H](CC(C)C)NC(=O)[C@H](Cc1ccccc1)NC(=O)[C@H](CCC(=O)O)NC(=O)[C@H](C)NC(=O)[C@H](CC(C)C)NC(=O)[C@H](CCCNC(=N)N)NC(=O)[C@H](CCC(N)=O)NC(=O)[C@@H](NC(=O)[C@H](C)NC(=O)[C@@H]1CSSC[C@H](NC(=O)[C@@H](N)CCCCNC(=O)CC[C@H](NC(=O)CCCCCCCCCCCCCCCCCCC(=O)O)C(=O)O)C(=O)N[C@@H](CC(N)=O)C(=O)N[C@@H]([C@@H](C)O)C(=O)N[C@@H](C)C(=O)N[C@@H]([C@@H](C)O)C(=O)N1)[C@@H](C)O)C(=O)N[C@@H](CC(C)C)C(=O)N1CCC[C@H]1C(=O)N1CCC[C@H]1C(=O)N[C@H](C(=O)N[C@@H](CC(N)=O)C(=O)N[C@H](C(=O)NCC(=O)N[C@@H](CO)C(=O)N[C@@H](Cc1c[nH]cn1)C(=O)N[C@H](C(=O)N[C@@H](Cc1ccc(O)cc1)C(N)=O)[C@@H](C)O)C(C)C)[C@@H](C)O
- Amylin receptor rat EC50 [1]: 106 pM
- CTa receptor rat EC50 [2]: 437 pM
- Amylin receptor human EC50 [3]: 142 pM
- CTa receptor human EC50 [4]: 228 pM

B6: N-alpha-[(S)-4-Carboxy-4-(19-carboxynonadecanoylamino)butyryl]-[Gly1,Glu14,Arg17,Pro37]-pramlintide (peptide)
peptide: {C20 diacid-γGlu}-GCNTATCATQRLAEFLRHSSNNFGPILPPTNVGSNTP-NH2
modifications: disulfide 2-7
SMILES: CC[C@H](C)[C@H](NC(=O)[C@@H]1CCCN1C(=O)CNC(=O)[C@H](Cc1ccccc1)NC(=O)[C@H](CC(N)=O)NC(=O)[C@H](CC(N)=O)NC(=O)[C@H](CO)NC(=O)[C@H](CO)NC(=O)[C@H](Cc1c[nH]cn1)NC(=O)[C@H](CCCNC(=N)N)NC(=O)[C@H](CC(C)C)NC(=O)[C@H](Cc1ccccc1)NC(=O)[C@H](CCC(=O)O)NC(=O)[C@H](C)NC(=O)[C@H](CC(C)C)NC(=O)[C@H](CCCNC(=N)N)NC(=O)[C@H](CCC(N)=O)NC(=O)[C@@H](NC(=O)[C@H](C)NC(=O)[C@@H]1CSSC[C@H](NC(=O)CNC(=O)CC[C@H](NC(=O)CCCCCCCCCCCCCCCCCCC(=O)O)C(=O)O)C(=O)N[C@@H](CC(N)=O)C(=O)N[C@@H]([C@@H](C)O)C(=O)N[C@@H](C)C(=O)N[C@@H]([C@@H](C)O)C(=O)N1)[C@@H](C)O)C(=O)N[C@@H](CC(C)C)C(=O)N1CCC[C@H]1C(=O)N1CCC[C@H]1C(=O)N[C@H](C(=O)N[C@@H](CC(N)=O)C(=O)N[C@H](C(=O)NCC(=O)N[C@@H](CO)C(=O)N[C@@H](CC(N)=O)C(=O)N[C@H](C(=O)N1CCC[C@H]1C(N)=O)[C@@H](C)O)C(C)C)[C@@H](C)O
- Amylin receptor rat EC50 [1]: 300 pM
- CTa receptor rat EC50 [2]: 370 pM
- Amylin receptor human EC50 [3]: 36 pM
- CTa receptor human EC50 [4]: 55 pM

— patent US20130005646A1 (Novo Nordisk, published 2013)
